Results from paper PMC12594171, “DKK3-LRP1 complex and a chemical inhibitor regulate Aβ clearance in models of Alzheimer’s disease” (Science Advances, 2025).

Target: mLRPIV-HA, stably expressed in SH-SY5Y
Experiment: co-IP + ELISA; SH-SY5Y cells stably expressing mLRPIV-HA incubated with Aβ42 and 1 to 200 nM DKK1 or DKK3; mLRPIV-HA precipitated with anti-HA affinity gel; Aβ42 in the eluate by ELISA

Sequence of DKK3-Flag (Q9UBP4 22-350): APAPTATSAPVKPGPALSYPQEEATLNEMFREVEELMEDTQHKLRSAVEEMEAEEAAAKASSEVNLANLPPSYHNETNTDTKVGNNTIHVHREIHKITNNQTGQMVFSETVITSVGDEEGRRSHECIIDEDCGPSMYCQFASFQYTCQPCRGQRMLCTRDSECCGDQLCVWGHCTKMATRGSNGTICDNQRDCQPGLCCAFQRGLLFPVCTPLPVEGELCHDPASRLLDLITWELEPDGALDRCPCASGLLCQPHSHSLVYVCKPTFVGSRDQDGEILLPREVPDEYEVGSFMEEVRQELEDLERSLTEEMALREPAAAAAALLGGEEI

DKK3-Flag (from UniProt Q9UBP4 22-350) (ligand)
percent reduction of Aβ42 binding to mLRPIV at 20 nM DKK3: 60%
